Results: paper PMC5217673, “The Shigella Virulence Factor IcsA Relieves N-WASP Autoinhibition by Displacing the Verprolin Homology/Cofilin/Acidic (VCA) Domain*” (The Journal of Biological Chemistry, 2016)
No end group written: not given here.

T1: IcsA passenger domain, IcsA(53–758), FLAG-tagged (Shigella flexneri, UniProt Q7BCK4 53-758)
T1 construct: IcsA (VirG) of Shigella flexneri, gene amplified from the virulence plasmid pWR100; Expressed as full-length IcsA from pETDuet-2 with IcsP; monomer by SEC-MALS; also called FLAG-IcsA; VirG; source: E. coli C43 (DE3), full-length IcsA co-expressed with IcsP; secreted passenger domain purified from medium (anti-FLAG M2 beads, SEC); not shown: FLAG, N-terminal, kept
T1 sequence: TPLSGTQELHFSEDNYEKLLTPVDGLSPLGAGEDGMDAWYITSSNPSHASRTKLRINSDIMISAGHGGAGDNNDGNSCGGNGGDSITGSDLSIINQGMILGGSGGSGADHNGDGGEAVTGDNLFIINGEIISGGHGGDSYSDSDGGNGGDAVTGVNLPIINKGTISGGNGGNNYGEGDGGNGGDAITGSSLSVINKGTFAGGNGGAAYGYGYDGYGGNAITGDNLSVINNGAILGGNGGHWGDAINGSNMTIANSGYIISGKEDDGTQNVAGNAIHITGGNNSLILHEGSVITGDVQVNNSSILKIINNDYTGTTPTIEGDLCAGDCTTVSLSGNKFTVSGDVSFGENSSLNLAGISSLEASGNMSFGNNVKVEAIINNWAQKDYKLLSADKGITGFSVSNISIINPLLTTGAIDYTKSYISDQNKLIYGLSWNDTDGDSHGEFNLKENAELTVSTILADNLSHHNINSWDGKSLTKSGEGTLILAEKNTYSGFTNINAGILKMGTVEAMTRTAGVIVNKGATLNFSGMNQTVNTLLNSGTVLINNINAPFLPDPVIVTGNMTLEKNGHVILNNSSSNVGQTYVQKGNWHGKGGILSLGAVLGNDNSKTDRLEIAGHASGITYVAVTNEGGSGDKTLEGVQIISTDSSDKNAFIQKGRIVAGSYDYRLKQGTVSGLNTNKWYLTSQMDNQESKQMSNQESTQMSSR

B1: GST-N-WASP extended GBD (residues 156–274) (domain or fragment)
chain: NLPMATVDIKNPEITTNRFYGPQVNNISHTKEKKKGKAKKKRLTKADIGTPSNFQHIGHVGWDPNTGFDLNNLDPELKNLFDMCGISEAQLKDRETSKVIYDFIEKTGGVEAVKNELRR
notes: Cloned in pGEX-6P-1 or pGEX-4T-2; also called GST-GBD; GBD alone; source: E. coli Rosetta(DE3), purified (glutathione-Sepharose, SEC)
B2: GST-N-WASP WH1 + GBD (residues 30–274) (domain or fragment)
chain: LFTFLGKKCVTMSSAVVQLYAADRNCMWSKKCSGVACLVKDNPQRSYFLRIFDIKDGKLLWEQELYNNFVYNSPRGYFHTFAGDTCQVALNFANEEEAKKFRKAVTDLLGRRQRKSEKRRDPPNGPNLPMATVDIKNPEITTNRFYGPQVNNISHTKEKKKGKAKKKRLTKADIGTPSNFQHIGHVGWDPNTGFDLNNLDPELKNLFDMCGISEAQLKDRETSKVIYDFIEKTGGVEAVKNELRR
notes: N-WASP from the WH1 domain to the end of the GBD, residues 30-274; also called GST-WH1 + GBD; extended N-WASP construct; source: E. coli Rosetta(DE3), purified (glutathione-Sepharose, SEC)

Legend:
Settings in all cases: both partners purified
[1] = target: T1, IcsA passenger domain, IcsA(53–758), …; experiment: fluorescence polarisation; competition: preformed complex of GST-GBD or GST-WH1 + GBD (5 μM) and fluorescein-VCA peptide (0.1 nM), IcsA added at 0.01–16 μM, 25 °C; one-site equilibrium model
[2] = target: B1; experiment: fluorescence polarisation; direct binding: fluorescein-VCA peptide 2 nM, GST-GBD or GST-WH1 + GBD 0.1–200 μM, 25 °C, TBS, 1 mM DTT; one-site equilibrium model
[3] = target: B2; experiment: as above

Row | Binder | Kd [1] | Kd [2] | Kd [3]
1 | B1 | 0.32 µM |  | 
2 | fluorescein-APTSGIVGALMEVMQKRSKA (also called labeled peptide; source: synthetic peptide (Genscript)) [Fluorescein-labelled N-WASP VCA peptide (residues 462–481)] |  | 28.8 µM | 52.4 µM
3 | B2 | 0.05 µM |  | 
